Test results as given in patent US20220298218A1 (ANTAG THERAPEUTICS, published 2022).
Read-outs that look alike come from different tables or passages of the source. Where no end group is shown, it is not given here. The star is where a group is joined. C16 diacid = O=C(O)CCCCCCCCCCCCCCC(=O)*

Assays:
[1] = target: T1, human GIP receptor (human, UniProt P48546 22-466); assay: cell-based or functional assay
T1 sequence (looked up): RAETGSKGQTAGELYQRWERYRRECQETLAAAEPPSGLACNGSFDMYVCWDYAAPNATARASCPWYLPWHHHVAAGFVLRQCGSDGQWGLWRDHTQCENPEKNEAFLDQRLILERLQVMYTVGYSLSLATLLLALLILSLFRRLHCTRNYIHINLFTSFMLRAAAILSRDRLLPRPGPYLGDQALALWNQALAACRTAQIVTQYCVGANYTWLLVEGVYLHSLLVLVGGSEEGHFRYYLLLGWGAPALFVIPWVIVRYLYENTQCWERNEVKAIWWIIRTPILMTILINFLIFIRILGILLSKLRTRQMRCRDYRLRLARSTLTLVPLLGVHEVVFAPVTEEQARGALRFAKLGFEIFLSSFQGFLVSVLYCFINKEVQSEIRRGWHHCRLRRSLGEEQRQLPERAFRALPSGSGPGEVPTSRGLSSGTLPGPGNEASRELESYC

[2] = target: T1, human GIP receptor; assay: cell-based or functional assay; remark: listed apart in the source

B1: AT473 (peptide)
peptide: EGTFISDYSIAMDKIK(C16 diacid)QQDFVNWLLAQKGPS-OH
modifications: N-terminus assumed
SMILES: CC[C@H](C)[C@H](NC(=O)[C@H](CO)NC(=O)[C@H](Cc1ccc(O)cc1)NC(=O)[C@H](CC(=O)O)NC(=O)[C@H](CO)NC(=O)[C@@H](NC(=O)[C@H](Cc1ccccc1)NC(=O)[C@@H](NC(=O)CNC(=O)[C@@H](N)CCC(=O)O)[C@@H](C)O)[C@@H](C)CC)C(=O)N[C@@H](C)C(=O)N[C@@H](CCSC)C(=O)N[C@@H](CC(=O)O)C(=O)N[C@@H](CCCCN)C(=O)N[C@H](C(=O)N[C@@H](CCCCNC(=O)CCCCCCCCCCCCCCC(=O)O)C(=O)N[C@@H](CCC(N)=O)C(=O)N[C@@H](CCC(N)=O)C(=O)N[C@@H](CC(=O)O)C(=O)N[C@@H](Cc1ccccc1)C(=O)N[C@H](C(=O)N[C@@H](CC(N)=O)C(=O)N[C@@H](Cc1c[nH]c2ccccc12)C(=O)N[C@@H](CC(C)C)C(=O)N[C@@H](CC(C)C)C(=O)N[C@@H](C)C(=O)N[C@@H](CCC(N)=O)C(=O)N[C@@H](CCCCN)C(=O)NCC(=O)N1CCC[C@H]1C(=O)N[C@@H](CO)C(=O)O)C(C)C)[C@@H](C)CC
In the case of B1, the “cAMP antagonism” value [1] is reported as 26 nM, the “cAMP antagonism % inhib” value [1] is reported as 100% and the cAMP antagonism log [1] is reported as -7.6 log M. The “cAMP agonism % Emax” value [2] was 0%, the “cAMP antagonism” value [2] was 2.93 nM and the “cAMP antagonism % inhib” value [2] was 88%. The “cAMP antagonism pIC50” value [2] was 8.5.

B2: AT474 (peptide)
peptide: EGTFISDYSIAMDKIK(C16 diacid)QQDFVNWLLAQKGP-OH
modifications: N-terminus assumed
SMILES: CC[C@H](C)[C@H](NC(=O)[C@H](CO)NC(=O)[C@H](Cc1ccc(O)cc1)NC(=O)[C@H](CC(=O)O)NC(=O)[C@H](CO)NC(=O)[C@@H](NC(=O)[C@H](Cc1ccccc1)NC(=O)[C@@H](NC(=O)CNC(=O)[C@@H](N)CCC(=O)O)[C@@H](C)O)[C@@H](C)CC)C(=O)N[C@@H](C)C(=O)N[C@@H](CCSC)C(=O)N[C@@H](CC(=O)O)C(=O)N[C@@H](CCCCN)C(=O)N[C@H](C(=O)N[C@@H](CCCCNC(=O)CCCCCCCCCCCCCCC(=O)O)C(=O)N[C@@H](CCC(N)=O)C(=O)N[C@@H](CCC(N)=O)C(=O)N[C@@H](CC(=O)O)C(=O)N[C@@H](Cc1ccccc1)C(=O)N[C@H](C(=O)N[C@@H](CC(N)=O)C(=O)N[C@@H](Cc1c[nH]c2ccccc12)C(=O)N[C@@H](CC(C)C)C(=O)N[C@@H](CC(C)C)C(=O)N[C@@H](C)C(=O)N[C@@H](CCC(N)=O)C(=O)N[C@@H](CCCCN)C(=O)NCC(=O)N1CCC[C@H]1C(=O)O)C(C)C)[C@@H](C)CC
For B2, the “cAMP agonism Emax” value [1] was 5.9, the “cAMP antagonism” value [1] was 4 nM and the “cAMP antagonism % inhib” value [1] was 100%. The cAMP antagonism log [1] was -8.4 log M, the “cAMP agonism % Emax” value [2] was 0% and the “cAMP antagonism” value [2] was 13.6 nM. The “cAMP antagonism % inhib” value [2] was 86% and the “cAMP antagonism pIC50” value [2] was 7.9.

B3: AT447 (peptide)
peptide: EGTFISDYSIAMDKIK(C16 diacid)QQDFVNWLLAQKG-OH
modifications: N-terminus assumed
SMILES: CC[C@H](C)[C@H](NC(=O)[C@H](CO)NC(=O)[C@H](Cc1ccc(O)cc1)NC(=O)[C@H](CC(=O)O)NC(=O)[C@H](CO)NC(=O)[C@@H](NC(=O)[C@H](Cc1ccccc1)NC(=O)[C@@H](NC(=O)CNC(=O)[C@@H](N)CCC(=O)O)[C@@H](C)O)[C@@H](C)CC)C(=O)N[C@@H](C)C(=O)N[C@@H](CCSC)C(=O)N[C@@H](CC(=O)O)C(=O)N[C@@H](CCCCN)C(=O)N[C@H](C(=O)N[C@@H](CCCCNC(=O)CCCCCCCCCCCCCCC(=O)O)C(=O)N[C@@H](CCC(N)=O)C(=O)N[C@@H](CCC(N)=O)C(=O)N[C@@H](CC(=O)O)C(=O)N[C@@H](Cc1ccccc1)C(=O)N[C@H](C(=O)N[C@@H](CC(N)=O)C(=O)N[C@@H](Cc1c[nH]c2ccccc12)C(=O)N[C@@H](CC(C)C)C(=O)N[C@@H](CC(C)C)C(=O)N[C@@H](C)C(=O)N[C@@H](CCC(N)=O)C(=O)N[C@@H](CCCCN)C(=O)NCC(=O)O)C(C)C)[C@@H](C)CC
In the case of B3, the “cAMP agonism Emax” value [1] is reported as 4.2, the “cAMP antagonism” value [1] is reported as 9 nM and the “cAMP antagonism % inhib” value [1] is reported as 82%. For the same binder, the cAMP antagonism log [1] was -8.1 log M, the “cAMP agonism % Emax” value [2] was 0% and the “cAMP antagonism” value [2] was 11.9 nM. The “cAMP antagonism % inhib” value [2] was 93% and the “cAMP antagonism pIC50” value [2] was 7.9.

B4: AT448 (peptide)
peptide: EGTFISDYSIAMDKIK(C16 diacid)QQDFVNWLLAQKGK-OH
modifications: N-terminus assumed
SMILES: CC[C@H](C)[C@H](NC(=O)[C@H](CO)NC(=O)[C@H](Cc1ccc(O)cc1)NC(=O)[C@H](CC(=O)O)NC(=O)[C@H](CO)NC(=O)[C@@H](NC(=O)[C@H](Cc1ccccc1)NC(=O)[C@@H](NC(=O)CNC(=O)[C@@H](N)CCC(=O)O)[C@@H](C)O)[C@@H](C)CC)C(=O)N[C@@H](C)C(=O)N[C@@H](CCSC)C(=O)N[C@@H](CC(=O)O)C(=O)N[C@@H](CCCCN)C(=O)N[C@H](C(=O)N[C@@H](CCCCNC(=O)CCCCCCCCCCCCCCC(=O)O)C(=O)N[C@@H](CCC(N)=O)C(=O)N[C@@H](CCC(N)=O)C(=O)N[C@@H](CC(=O)O)C(=O)N[C@@H](Cc1ccccc1)C(=O)N[C@H](C(=O)N[C@@H](CC(N)=O)C(=O)N[C@@H](Cc1c[nH]c2ccccc12)C(=O)N[C@@H](CC(C)C)C(=O)N[C@@H](CC(C)C)C(=O)N[C@@H](C)C(=O)N[C@@H](CCC(N)=O)C(=O)N[C@@H](CCCCN)C(=O)NCC(=O)N[C@@H](CCCCN)C(=O)O)C(C)C)[C@@H](C)CC
B4 was tested, and the “cAMP agonism Emax” value [1] was 6.2, the “cAMP antagonism” value [1] was 6 nM and the “cAMP antagonism % inhib” value [1] was 77%. For the same binder, the cAMP antagonism log [1] was -8.2 log M, the “cAMP agonism % Emax” value [2] was 0% and the “cAMP antagonism” value [2] was 1.36 nM. The “cAMP antagonism % inhib” value [2] was 96% and the “cAMP antagonism pIC50” value [2] was 8.9.

B5: AT360 (peptide)
peptide: EGTFISDYSIAMDKIK(C16 diacid)QQDFVNWLLAQKGKK-OH
modifications: N-terminus assumed
SMILES: CC[C@H](C)[C@H](NC(=O)[C@H](CO)NC(=O)[C@H](Cc1ccc(O)cc1)NC(=O)[C@H](CC(=O)O)NC(=O)[C@H](CO)NC(=O)[C@@H](NC(=O)[C@H](Cc1ccccc1)NC(=O)[C@@H](NC(=O)CNC(=O)[C@@H](N)CCC(=O)O)[C@@H](C)O)[C@@H](C)CC)C(=O)N[C@@H](C)C(=O)N[C@@H](CCSC)C(=O)N[C@@H](CC(=O)O)C(=O)N[C@@H](CCCCN)C(=O)N[C@H](C(=O)N[C@@H](CCCCNC(=O)CCCCCCCCCCCCCCC(=O)O)C(=O)N[C@@H](CCC(N)=O)C(=O)N[C@@H](CCC(N)=O)C(=O)N[C@@H](CC(=O)O)C(=O)N[C@@H](Cc1ccccc1)C(=O)N[C@H](C(=O)N[C@@H](CC(N)=O)C(=O)N[C@@H](Cc1c[nH]c2ccccc12)C(=O)N[C@@H](CC(C)C)C(=O)N[C@@H](CC(C)C)C(=O)N[C@@H](C)C(=O)N[C@@H](CCC(N)=O)C(=O)N[C@@H](CCCCN)C(=O)NCC(=O)N[C@@H](CCCCN)C(=O)N[C@@H](CCCCN)C(=O)O)C(C)C)[C@@H](C)CC
B5 was tested, and the “cAMP agonism Emax” value [1] was 20, the “cAMP antagonism” value [1] was 86 nM and the “cAMP antagonism % inhib” value [1] was 85%. The cAMP antagonism log [1] was -7.1 log M, the “cAMP agonism % Emax” value [2] was 0% and the “cAMP antagonism” value [2] was 12.6 nM. The “cAMP antagonism % inhib” value [2] was 96% and the “cAMP antagonism pIC50” value [2] was 7.9.

B6: AT449 (peptide)
peptide: EGTFISDYSIAMDKIK(C16 diacid)QQDFVNWLLAQKGKKN-OH
modifications: N-terminus assumed
SMILES: CC[C@H](C)[C@H](NC(=O)[C@H](CO)NC(=O)[C@H](Cc1ccc(O)cc1)NC(=O)[C@H](CC(=O)O)NC(=O)[C@H](CO)NC(=O)[C@@H](NC(=O)[C@H](Cc1ccccc1)NC(=O)[C@@H](NC(=O)CNC(=O)[C@@H](N)CCC(=O)O)[C@@H](C)O)[C@@H](C)CC)C(=O)N[C@@H](C)C(=O)N[C@@H](CCSC)C(=O)N[C@@H](CC(=O)O)C(=O)N[C@@H](CCCCN)C(=O)N[C@H](C(=O)N[C@@H](CCCCNC(=O)CCCCCCCCCCCCCCC(=O)O)C(=O)N[C@@H](CCC(N)=O)C(=O)N[C@@H](CCC(N)=O)C(=O)N[C@@H](CC(=O)O)C(=O)N[C@@H](Cc1ccccc1)C(=O)N[C@H](C(=O)N[C@@H](CC(N)=O)C(=O)N[C@@H](Cc1c[nH]c2ccccc12)C(=O)N[C@@H](CC(C)C)C(=O)N[C@@H](CC(C)C)C(=O)N[C@@H](C)C(=O)N[C@@H](CCC(N)=O)C(=O)N[C@@H](CCCCN)C(=O)NCC(=O)N[C@@H](CCCCN)C(=O)N[C@@H](CCCCN)C(=O)N[C@@H](CC(N)=O)C(=O)O)C(C)C)[C@@H](C)CC
B6 was tested, and the “cAMP agonism Emax” value [1] was 8.6, the “cAMP antagonism” value [1] was 4 nM and the “cAMP antagonism % inhib” value [1] was 95%. The cAMP antagonism log [1] was -8.4 log M, the “cAMP agonism % Emax” value [2] was 0% and the “cAMP antagonism” value [2] was 5.84 nM. The “cAMP antagonism % inhib” value [2] was 89% and the “cAMP antagonism pIC50” value [2] was 8.2.
